Earlier results as cited in publication PMC6935268.

Molecular target: CD80 (Homo sapiens) (UniProt P33681)
Chain of UniProt P33681 (P33681 35-242): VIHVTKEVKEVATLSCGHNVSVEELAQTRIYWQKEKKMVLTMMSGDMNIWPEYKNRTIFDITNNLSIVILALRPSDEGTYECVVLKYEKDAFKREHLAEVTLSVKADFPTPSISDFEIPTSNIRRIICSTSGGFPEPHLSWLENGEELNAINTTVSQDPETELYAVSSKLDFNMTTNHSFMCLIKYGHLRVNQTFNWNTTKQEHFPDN

Kd: 17.8 µM
Substance: PD-L1 (from UniProt Q9NZQ7)
